In patent US20220040290A1:

Molecular target: stabilized CH505 TF ch.SOSIP trimer (E64K/A316W) (HIV-1)
Assay: method not stated

“unmutated common ancestor (UCA) of the CH103 B cell lineage (antibody)” was tested. Which Kd did it give?
The Kd was 171 nM.
